What was measured:
[1] = molecular target: T1, hASIC1a on CHO-K1 cells stably expressing hASIC1a (human, UniProt P78348 1-528); assay: cell-based or functional assay
T1 sequence (looked up): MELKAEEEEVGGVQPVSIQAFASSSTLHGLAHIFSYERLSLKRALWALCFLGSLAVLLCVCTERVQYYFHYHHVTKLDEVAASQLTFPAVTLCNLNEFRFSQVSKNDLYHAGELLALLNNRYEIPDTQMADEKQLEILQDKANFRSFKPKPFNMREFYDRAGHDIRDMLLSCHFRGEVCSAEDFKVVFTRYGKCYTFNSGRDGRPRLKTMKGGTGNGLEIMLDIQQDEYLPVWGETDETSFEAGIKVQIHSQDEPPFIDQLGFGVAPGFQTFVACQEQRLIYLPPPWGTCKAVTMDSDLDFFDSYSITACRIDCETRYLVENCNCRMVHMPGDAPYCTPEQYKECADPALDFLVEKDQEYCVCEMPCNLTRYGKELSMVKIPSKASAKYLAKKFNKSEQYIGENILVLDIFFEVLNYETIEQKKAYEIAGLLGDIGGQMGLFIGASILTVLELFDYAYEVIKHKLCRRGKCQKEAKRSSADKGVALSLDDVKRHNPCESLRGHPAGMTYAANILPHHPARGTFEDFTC

[2] = molecular target: T2, human ASIC1a (hASIC1a-eYFP) (Homo sapiens, UniProt P78348); assay: FACS-based binding assay, transiently transfected CHO-K1 cells (species selectivity); conditions: double positive population
T2 construct: expressed in transfected cells; host or cells: CHO-K1 (transient)
T2 sequence (P78348 1-528): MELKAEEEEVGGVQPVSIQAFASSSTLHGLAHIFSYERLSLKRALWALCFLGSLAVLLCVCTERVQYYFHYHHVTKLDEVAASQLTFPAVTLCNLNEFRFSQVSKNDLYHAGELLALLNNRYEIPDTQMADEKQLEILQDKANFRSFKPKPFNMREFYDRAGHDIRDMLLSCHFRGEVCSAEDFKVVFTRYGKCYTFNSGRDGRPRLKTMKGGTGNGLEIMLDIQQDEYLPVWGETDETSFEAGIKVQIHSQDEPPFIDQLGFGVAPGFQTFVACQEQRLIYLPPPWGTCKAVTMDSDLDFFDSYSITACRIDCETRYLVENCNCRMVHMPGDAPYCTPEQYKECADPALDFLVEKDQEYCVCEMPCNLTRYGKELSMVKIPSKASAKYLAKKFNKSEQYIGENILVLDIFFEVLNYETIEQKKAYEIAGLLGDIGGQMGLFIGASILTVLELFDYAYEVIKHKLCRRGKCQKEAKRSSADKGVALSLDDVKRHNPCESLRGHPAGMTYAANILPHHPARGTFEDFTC
Description: (§1) To investigate the species selectivity of ASC06-IgG1 affinity-matured antibodies, plasmids encoding fusion proteins of eYFP with […] homologs of ASIC1a were constructed. These plasmids included those encoding human ASIC1a (hASIC1a-eYFP), mouse ASIC1a (mASIC1a-eYFP), and rat ASIC1a (rASIC1a-eYFP). CHO-K1 cells were transiently transfected with the ASIC1a-eYFP plasmids, and a fluorescence activated cell sorting (FACS)-based binding assay was carried out to determine binding to the homologs or isoforms of ASIC1a expressed on the cell surface. An isotype control was used as a negative control for binding (NC). ASC06-IgG1 was used as a positive control. Summarily, the CHO-K1 cells expressing the ASIC1a-eYFP (green) homologs were stained with the indicated antibody (red) and subjected to FACS.

[3] = molecular target: T3, mouse ASIC1a (mASIC1a-eYFP) (Mus musculus, UniProt Q6NXK8); assay: as above; conditions: double positive population
T3 construct: expressed in transfected cells; host or cells: CHO-K1 (transient)
T3 sequence (Q6NXK8 1-526): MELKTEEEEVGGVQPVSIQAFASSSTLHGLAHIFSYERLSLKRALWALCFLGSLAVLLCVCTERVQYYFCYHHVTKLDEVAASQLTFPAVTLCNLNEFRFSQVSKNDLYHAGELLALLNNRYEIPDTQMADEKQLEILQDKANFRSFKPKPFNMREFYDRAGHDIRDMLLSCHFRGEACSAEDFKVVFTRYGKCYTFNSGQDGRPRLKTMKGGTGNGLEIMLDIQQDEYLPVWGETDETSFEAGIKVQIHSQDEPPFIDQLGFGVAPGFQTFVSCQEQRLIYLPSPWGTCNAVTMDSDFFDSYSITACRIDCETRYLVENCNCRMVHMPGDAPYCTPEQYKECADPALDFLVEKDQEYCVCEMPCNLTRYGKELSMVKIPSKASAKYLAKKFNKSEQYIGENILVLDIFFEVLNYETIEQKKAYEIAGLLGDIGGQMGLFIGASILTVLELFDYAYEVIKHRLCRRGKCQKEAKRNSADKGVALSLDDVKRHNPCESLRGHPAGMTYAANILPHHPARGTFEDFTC
Description: as §1

[4] = molecular target: T4, rat ASIC1a (rASIC1a-eYFP) (Rattus norvegicus, UniProt P55926); assay: as above; conditions: double positive population
T4 construct: expressed in transfected cells; host or cells: CHO-K1 (transient)
T4 sequence (P55926 1-526): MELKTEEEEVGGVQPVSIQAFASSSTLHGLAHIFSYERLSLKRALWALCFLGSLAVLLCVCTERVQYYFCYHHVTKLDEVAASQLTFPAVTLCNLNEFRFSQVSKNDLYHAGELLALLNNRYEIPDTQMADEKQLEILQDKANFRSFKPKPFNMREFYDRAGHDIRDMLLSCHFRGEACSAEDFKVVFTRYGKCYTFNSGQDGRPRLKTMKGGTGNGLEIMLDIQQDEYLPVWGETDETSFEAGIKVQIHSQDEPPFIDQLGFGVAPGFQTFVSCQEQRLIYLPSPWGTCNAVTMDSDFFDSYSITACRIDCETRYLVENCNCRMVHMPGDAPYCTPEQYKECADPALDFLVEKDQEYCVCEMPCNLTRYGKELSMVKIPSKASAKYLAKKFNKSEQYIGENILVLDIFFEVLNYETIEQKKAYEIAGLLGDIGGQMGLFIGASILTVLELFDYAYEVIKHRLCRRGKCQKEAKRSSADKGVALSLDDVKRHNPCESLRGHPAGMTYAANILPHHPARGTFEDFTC
Description: as §1

ASIC1a = molecular target: T5, ASIC1a (Homo sapiens, UniProt P78348); assay: Patch clamp whole-cell recording of acid-induced hASIC1a currents; format: cell-based; conditions: for blockage of ASIC1a-mediated currents compared to ASC06-IgG1: 100 nM antibody
T5 construct: expressed in transfected cells
T5 sequence (P78348 1-528): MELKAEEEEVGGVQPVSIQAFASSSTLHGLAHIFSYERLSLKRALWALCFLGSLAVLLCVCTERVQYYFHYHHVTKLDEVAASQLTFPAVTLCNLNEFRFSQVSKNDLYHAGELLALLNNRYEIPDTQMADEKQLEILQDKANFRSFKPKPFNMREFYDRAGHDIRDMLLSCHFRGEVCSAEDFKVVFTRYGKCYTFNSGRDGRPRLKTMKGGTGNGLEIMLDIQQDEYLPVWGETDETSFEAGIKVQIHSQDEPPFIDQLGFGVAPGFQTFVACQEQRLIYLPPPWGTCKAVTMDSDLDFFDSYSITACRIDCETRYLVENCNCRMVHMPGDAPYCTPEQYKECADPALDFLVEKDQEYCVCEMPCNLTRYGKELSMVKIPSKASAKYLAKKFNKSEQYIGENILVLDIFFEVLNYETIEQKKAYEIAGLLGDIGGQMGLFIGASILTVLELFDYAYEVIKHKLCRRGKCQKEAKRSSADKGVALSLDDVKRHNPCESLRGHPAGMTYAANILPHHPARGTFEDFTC
Description: FIGS. 4A-4E show the effect of affinity-matured ASC06-IgG1 derivative antibodies on the hASIC1a currents. Shown are the representative current traces recorded from single CHO-K1 cells stably expressing hASIC1a in the absence or presence of 100 nM ASC06-IgG1 (FIG. 4A) or affinity-matured ASC06-IgG1 versions ASC06-01-IgG1 (FIG. 4B), ASC06-02-IgG1 (FIG. 4C), ASC06-03-IgG1 (FIG. 4D), or ASC06-04-IgG1 (FIG. 4E). Amiloride (30 μM) was used as a positive control. “Wash” represents the recovery of the current after the treatment of 100 nM indicated antibody followed by 15 min infusion of washing solution.
Whether the affinity-matured ASC06-IgG1 derivative antibodies have an effect on the acid-induced, hASIC1a-mediated electrical current in cells was tested. An hASIC1a overexpressing stable cell line was used as a model for these studies. Extracellular pH was decreased from pH 7.4 to pH 6.0 and the amplitudes of the hASIC1a-mediated inward currents were recorded in the whole-cell recording mode in the presence of the affinity-matured ASC06-IgG1 derivative antibodies (FIGS. 4A-4E). The ASIC1a inhibitor amiloride (30 μM) was used as a positive control for the inhibition of ASIC1a currents.

B1: ASC06-01-IgG1 (antibody, V domains shown)
VH: QVQLQQSGGGLVQPGGSLRLSCAASGFTFSSYAMSWVRQAPGKGLEWVSAISGSGGSTYYADSVKGRFTISRDNSKNTLYLQMNSLRAEDTAVYYCAKDSYFGYSKGDWGQGTLVTVSS
VL: QSALTQPASVSGSPGQSITISCTGTSSDVGAYNYVSWYQQQPGKAPKLMIYGVSNRPSGVSNRFSGSKSGNAASLTISGLQAEDEADYYCSSYTSSSTYVFGTGTKLTVLG
notes: Full length IgG1
- IC50 for the inhibition of ASIC1a currents, FMP assay [1]: 74 nM

B2: ASC06-04-IgG1: affinity-matured ASC06 derivative, VH-CDR3 DSFYGRAKGV (SEQ ID NO: 17) (antibody, V domains shown)
VH: QVQLQQSGGGLVQPGGSLRLSCAASGFTFSSYAMSWVRQAPGKGLEWVSAISGSGGSTYYADSVKGRFTISRDNSKNTLYLQMNSLRAEDTAVYYCAKDSFYGRAKGVWGQGTLVTVSS
VL: QSALTQPASVSGSPGQSITISCTGTSSDVGAYNYVSWYQQQPGKAPKLMIYGVSNRPSGVSNRFSGSKSGNAASLTISGLQAEDEADYYCSSYTSSSTYVFGTGTKLTVLG
- binding to cells expressing hASIC1a-eYFP [2]: bound
- binding to cells expressing mASIC1a-eYFP [3]: bound
- binding to cells expressing rASIC1a-eYFP [4]: bound
- blockage of ASIC1a-mediated currents compared to ASC06-IgG1 (ASIC1a): stronger blockage
- Percent inhibition of the acid induced-hASIC1a currents (ASIC1a; 300 nM antibody, pH 7.4 to pH 6.0, mean ± standard deviation): 96.8 ± 3.4%

B3: ASC06-02-IgG1: affinity-matured ASC06 derivative, VH-CDR3 DSFFGRAKGS (SEQ ID NO: 13) (antibody, V domains shown)
VH: QVQLQQSGGGLVQPGGSLRLSCAASGFTFSSYAMSWVRQAPGKGLEWVSAISGSGGSTYYADSVKGRFTISRDNSKNTLYLQMNSLRAEDTAVYYCAKDSFFGRAKGSWGQGTLVTVSS
VL: QSALTQPASVSGSPGQSITISCTGTSSDVGAYNYVSWYQQQPGKAPKLMIYGVSNRPSGVSNRFSGSKSGNAASLTISGLQAEDEADYYCSSYTSSSTYVFGTGTKLTVLG
- binding to cells expressing hASIC1a-eYFP [2]: bound
- binding to cells expressing mASIC1a-eYFP [3]: bound
- binding to cells expressing rASIC1a-eYFP [4]: bound
- blockage of ASIC1a-mediated currents compared to ASC06-IgG1 (ASIC1a): stronger blockage

B4: ASC06-03-IgG1: affinity-matured ASC06 derivative, VH-CDR3 DSFYGRAKGS (SEQ ID NO: 15) (antibody, V domains shown)
VH: QVQLQQSGGGLVQPGGSLRLSCAASGFTFSSYAMSWVRQAPGKGLEWVSAISGSGGSTYYADSVKGRFTISRDNSKNTLYLQMNSLRAEDTAVYYCAKDSFYGRAKGSWGQGTLVTVSS
VL: QSALTQPASVSGSPGQSITISCTGTSSDVGAYNYVSWYQQQPGKAPKLMIYGVSNRPSGVSNRFSGSKSGNAASLTISGLQAEDEADYYCSSYTSSSTYVFGTGTKLTVLG
- binding to cells expressing hASIC1a-eYFP [2]: bound
- binding to cells expressing mASIC1a-eYFP [3]: bound
- binding to cells expressing rASIC1a-eYFP [4]: bound
- blockage of ASIC1a-mediated currents compared to ASC06-IgG1 (ASIC1a): stronger blockage
